B1: SDHB ARE probe (dsDNA)
DNA 1: AGAGCTCCCTGTACTTTCCCAACA
DNA 2: TGTTGGGAAAGTACAGGGAGCTCT
B2: SDHA ARE probe (dsDNA)
DNA 1: GCGACTTGTGCTGGCTGAGGGA
DNA 2: TCCCTCAGCCAGCACAAGTCGC

Molecular target: Androgen receptor DNA-binding domain (AR-DBD) (UniProt P10275 560-632)
Assay: EMSA; Odyssey infrared EMSA kit (LI-COR): 2.5 mM DTT/0.25% Tween 20, poly(dI.dC), room temperature 30 min, increasing protein; 6% TBE native gel; salt and pH not stated
Conditions: protein: recombinant; chain copies: 2; label: 5' IRDye700 on both strands; blunt

Androgen receptor DNA-binding domain (AR-DBD), sequence (P10275 560-632): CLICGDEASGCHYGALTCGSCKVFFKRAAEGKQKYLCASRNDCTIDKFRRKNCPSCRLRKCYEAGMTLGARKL

| Binder | binding result |
| --- | --- |
| B1 | binds |
| B2 | binds |
